Measurements as given in US20150018409A1, “CHIMERIC POLYPEPTIDES AND THEIR USE” (ADRIACELL S.P.A., priority 2003, published 2015).

Assays:
[1] = test system: AT-5 cells (mutated for ATM); test: FACS analysis of DNA content / cell cycle distribution; format: cell-based; settings: incubation for 36 hours (25 nM, 100 nM)
Experimental: FIG. 8. Induction of Cell Cycle Block and Clonogenic Activity by […] of Cells Mutated for ATM (AT-5) in Comparison to Non Mutated Cells (MRC-5). • A) Distribution of DNA content distribution during the cell cycle detected by FACS analysis of AT-5 cells after 36 hours of […] treatment (25 nM, 100 nM), or with adriamycin (0.02 μg/ml; ADRIAMYCIN), or with SC34 (100 nM), and as control from non treated cells. The histograms represent DNA content relative to the cell-numbers; the panel on the right indicates the percentage of the corresponding distributions of the various cell cycle phases as calculated with the MODFIT™ program-package. • B) Colony forming assay with cell lines mutated for ATM and induced for DNA damage by […].
The cell cycle response to DSB's induced by […] treatment were analysed in p53 positive or negative cells. […] Incubation for 36 hours of the cell lines mutated for ATM (AT-5) with […] results in a transient retardation of the cell cycle, as was determined by a DNA content FACS analysis. […] A single addition of […] for 60 minutes to the AT-5 cells was sufficient to induce cell cycle stop after 24 hours (FIG. 8A) and finally leads to cell death, obtained from not correctly ligated DNA, and consequently, the clonogenic activity after a single treatment with […] for 60 minutes was below 0.02% for AT-5 cells. […]

HCT116 (p53(+/+)) cells = test: Cell cycle arrest point: nuclear morphology and immunofluorescence of cyclin B1 and Cdc25C; format: cell-based, human
Experimental: Microscopic analysis of the HCT116 (p53(+/+)) cells not treated, or treated with […] (100 nM) for 30 hours, or with taxol (0.2 μg/ml). Immunofluorescence analysis was done with primary antibodies specific for cyclin B1 or specific for Cdc25C and coloured with secondary conjugates of FITC (green, cyclinB1) or TRITC (red, Cdc25C).
Moreover, the initiation of mitosis, i.e. induced with the microtuble blocking agents Nocodazol or Taxol, can be detected by the nuclear activity of the Cdc2 kinase and also by nuclear localisation of Cdc25C. These assays allow to dissect the exact point of cell cycle arrest after […] treatment and this further allows to detect disturbations in this phase of the cell cycle relative to a positive control. Similar experiments are well known in the art also for other phases of the cell cycle. The assay shown in FIG. 7A and the immunofluorescence analysis shown in FIG. 14 show examples for these types of experiments.
HCT116 (p53(+/+)) not treated, or treated for 30 hours with […] (100 nM), or with Taxol (0.2 μg/ml) were fixated with 3% PFA and treated with specific antibodies to cyclin B1 or for Cdc25C. The immunofluorescence was analysed with the microscope (see FIG. 14) with specific primary antibodies to cyclin B1 conjugated to FITC labelled secondary antibodies (green) or with specific primary antibodies to Cdc25C conjugated to TRITC labelled secondary antibodies (red).

B1: SCPVUTAT: single chain PvuII endonuclease (aa 1-157, GSGG linker, aa 2-157) fused to HIV Tat peptide and six histidine tag; SEQ ID NO:2 (protein, listed as Proteus vulgaris)
chain: MSHPDLNKLLELWPHIQEYQDLALKHGINDIFQDNGGKLLQVLLITGLTVLPGREGNDAVDNAGQEYELKSINIDLTKGFSTHHHMNPVIIAKYRQVPWIFAIYRGIAIEAIYRLEPKDLEFYYDKWERKWYSDGHKDINNPKIPVKYVMEHGTKIYGSGGSHPDLNKLLELWPHIQEYQDLALKHGINDIFQDNGGKLLQVLLITGLTVLPGREGNDAVDNAGQEYELKSINIDLTKGFSTHHHMNPVIIAKYRQVPWIFAIYRGIAIEAIYRLEPKDLEFYYDKWERKWYSDGHKDINNPKIPVKYVMEHGTKIYGSYGRKKRRQRRRGGSHHHHHH
change of cell cycle distribution (DNA content) [1]: strong increase in 4N G2 DNA content
cell cycle stop from localisation of Cdc25C and cyclin B (HCT116 (p53(+/+)) cells; 30 hours, SCPVUTAT 100 nM or Taxol 0.2 μg/ml): G2 phase stop
cell cycle block (HCT116 (p53(+/+)) cells; upon treatment with SCPVUTAT (100 nM)): reversible block in the phase of the cell cycle that corresponds to late S/G2
